# Measured values reported in the nanobody polyreactivity screen of Harvey et al. (2022).
# Assay: yeast display, Sf9 membrane polyspecificity reagent, FACS + sequencing; frameworks hold sequencing errors
# Outline: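 Synthetic nanobody libraries on Saccharomyces cerevisiae BJ5465 were galactose-induced for 36–48 hours, stained 1 hour at 4 °C with 10% biotinylated, detergent-solubilized Sf9 membrane reagent and enriched on streptavidin microbeads. FACS then separated cells into low and high (top ~1%) gates by anti-HA (expression) and streptavidin (reagent binding) fluorescence. Genes were colony-PCR amplified, MiSeq 2 × 250 sequenced and CDR-length filtered. A clone's polyreactivity label is that of its gate of origin.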
row,Sequence,polyreactivity (PSR sort gate)
1,QVQLVESGGGLVQAGGSLRLSCASSGFTLVGYAMGWYRQAPGKERELVAAISYRGGSTYYADSVKGRFTISRDNAKNTVYLQMNSLKPEDNAVYYCAATYQGSSRSRGYWGQGTQVTVSS,high polyreactivity
2,QVQLQGSGGGLVQAGGSLRMSCAASAYIFQNVPKGLNRKEPGKERELVAGIDNGTSTNYADSVNGRFTISRDNAKNSVYLEMKSLKPVDTAVYYCAAAGQADDTLGYWGQGTQVTVSS,low polyreactivity
3,QVQLVESGGGLVQAGGSLRLTCAASGSTYYSYAMGWYRQATGKERELVAAITSRGDRTYYADSVQGRFTISRDNAKNTVYLQMNSLKPEDTAVYYCAAEQSWQGYAYYYCGQGTQVTVSS,high polyreactivity
4,QVQLVESGGGLVQAGGSLRLSCAASGSIFGKDAMVWYRQAPGKEREFVAGIRGSGTRTYYADSVKGRFTISRDNAKNTVYLQLNSLKPEDTAVYYCNAVFGYRGPYYYWGQGTQVTVSS,high polyreactivity
5,QVQLVESGVGLVQAGGSLRLSCAASGSIFIRNAMGWYRQAPGKERELVAAISGSGSSTYYADSVKGRFTISRDTAKNTVYLQMNILKPEDTAVYYCNTDRTHSYQYGGYDYWGQGTQVTVSS,low polyreactivity
6,QVQLVESGGGLVQAGGSLRLSCAASGITFRRYALGWYRQAPGKERELVAAITSGGGTYYADSVKGRFTISRDNAKNTVYLQMNSLKPEDTAVYYCNTYYHWLTMDYWGQGTQVTVSS,high polyreactivity
7,QVQLVESGGGLVQAGGSLRLSCASSGRNFRGYAMGWYRQAPGKEREFVAAITKNGGSTYYADSVKGRFTISRDNAKNTVYLQMNSLKPEDTAVYYCAVRAWDPYTGKSDYWGQGTQVTVSS,low polyreactivity
8,QDQLVESGGGLVQAGGSLRLSGAASGRIFGYYAMGWYRQPPGKETELVARISSGGGSTYYADSVKGRFTISRDNAKNTVYLQLNSLKPEDTAVDYCATVLYPYSPRYDYWGQGTLVTVSS,high polyreactivity
9,QVQLVESWGGLVQAGGSLRLSCAASGRTFGKYAMGWYRQAPGKERELVASITFSSGSTYYADSVKGRFTISRDNAKNTVYLQMNSLKPEDTAVYYCAKRGWGIYDYWGQGTQVTVSS,low polyreactivity
10,QVQLVESGGGLVQAGGSLRLSCAASGIIMRKYAMGWYRQAPGKERELVAAITTRGSRTYYADSVKGRFTISRDNAKNTVYLQMNSLKPEDTAVYYCAADRYTVRMDYWGQGTQVTVSS,high polyreactivity
11,QVQLVESGGGLVHAGGSLRLSCAASGSTFSRYAMGWYRQAPWKERELVAAISWSGASTYYADSVKWRFTISRDNAKNTVYLQMNSLKPEDTSVYYCAKVARQNWFRYNYDYWGQGTQVTVSS,high polyreactivity
12,QVQLVESGGGLLQAGGSLRLSCAASGRTFGYYAMGWYRQAPGKERELVAAISKSGGRTYYADSVKGRFTISRDNAKNTVYLQMNSLKPEDTAVYYCAADGGAIVPYYENYYWGQGTQVTVSS,high polyreactivity
13,QVQLVESGGGLVQAGGSLRLSCAASGFTFYVYARGWYRQAPGKERQLVAAISRSGGSTYYADSVKGSFTISRDNAKNTVYLQMQSLKPEDTAVYYCAVVQRYWYPGIVPYDYWGQGSQVTVSS,high polyreactivity
14,QVQLVESGGGLVQAGGSLRLSCAASGLIFIAYAMGWYRQAPGKDRELVAAISSGGSTYADSVKRRFTISRDNAKNTVYLQMNSLKPEETAVYYCNADSWSGTTYFNFNYWGQGTQVTVSS,low polyreactivity
15,QVQLLESGGGLVQAGGSLRLSCAASGRTCRWYAMGWYTQAPWKERELVAAISSSTASTYYADSVKGRFTISRDYAKITVYLQMNSLKPEDSAVYYCAKYYYRFPVCYDYWGLGTQVTVSS,high polyreactivity
16,QVQLEESGGGLVQAGGRLRLSCAASGRTFGRYAMGWDREPPGKERELVAAIRSGGSTYYADSVKGRLTISRDNAKNTVYFQMNSVKQADTAVYYCAADIARHLTGFAYYGLDYWGQGTQVTVSS,low polyreactivity

row,Sequence,polyreactivity (PSR sort gate)
1,QVQHVESGGGLVQAGGSLRLSCAASGSTISNNAMGWYRQAPGKERELVAGINSSGGRTYYADSVKGRFTISRDNAKNTVYLQMNSLKPEDTAVYYCNADNFRRYGYWGQGTQVTVSS,high polyreactivity
2,QVQLVESGGGLVQAGGSLRLSCAASGFTFKYNAMGWYRQAPGKERELVASISSGSTNYADSVKGRFTISRDNAKNTVYLQMNSLKPEDTAVYYCAASVSRGKRFRYGYVFKMDYWGQGTQVTVSS,low polyreactivity
3,QVQLVESGGGLVQAGGSLRLSCAASGRTSRIYAMGLYRQAPGKERELVASISRRGGITYYADSVKGRFTISRDNAKTTVDFQMTSLKPEDTAVYYSASYYTNKVPARYYWGQGTEVTVSS,high polyreactivity
4,QVQLVESGGGLVQAGGSLRLSCAASGPTFTPYAMGWYRPAPGKERELVAAISGGGSTNYADSVKGRFTISRDNAKNTVFLQMNSLKPEDTAVYYCAKRVYRGRRMDYWGQGTQVTVSS,high polyreactivity
5,QVQLVESGGGLVQAGGSLRLSCAASGFTFYLYAMGWYRQAPGKERELVAAISSRGGTTYYADSVKGRFTISRDNAKNTVYLQMNSLKPEDTAVYYCNVARVYHIYDYWGQGTQVTVSS,high polyreactivity
6,QVQLVESGGGLVQAVGSLRLSCDATGSTLHKNTMGWYRQAPAKERELVAAISRRGGSTYYADSVKGRFTISRDNAKITVYLQMNSLKPEDTAVYYCATEGYDGEFDYWGQGTQVTVSS,high polyreactivity
7,KVQLVESGGGLVQAGGSLRLSCAASGSTFRTYAMGWYRQAPGKERELVADITWRGGSTYYADSVKGRFTISRDNAKNTDYFQMNSLKPEDTAVYYCATDRGPEVVLYVYWGQGTQVTVSS,low polyreactivity
8,QVQLVESGGGLVQAGGSLRLSCAASGSTFGPYAMGWYRQAPGKERELVAAISRRGTSTYYADSVKGRFTISRDNAKNTVYLQMISLKPEDTAVYYCAADRLLYGGGREYWGQGTQVTVSS,high polyreactivity
9,QVQLVESGGGLVQAGGSLRLSCAASGRIFRYNAMGWYRQAPGKERELVAAISQSGGSTYYADSVKGRFTISRDNAMNTVYLQMNSLKPEDTAVYYCGADNYFLGDEDYWGQGTQGTVSS,high polyreactivity
10,QDQLVESGGGLVQAGGSLRLSCAASGRTFNGYAMGWYRQAPGKDRELVARITYRGGGTYYADSVKGRFTISRDNAKNTVYLQMNILKTEDTAVYYCNARGVQYRYYYWGQGTQVTVSS,high polyreactivity
11,QVHLVESGGGLVQAGGSLRLSCAASGITFDEYTMGWYRQAPGKERELVAAIDSDGSTTYADSVKGRFTISRDNAKNTVYLQMNSLKPEDSAVYYCNAEHGDFSWHYLLYDYDYWGPGTQVTVSS,low polyreactivity
12,QVQLVESGGGLVQAGGSLRLSCAASGRIFTLYTMGWYRQAPGKERELVARITRSGGTTYYADSVKGRFTISRDNSKNTVYLQMNSLKPEDTAVYYCNVDDYFWPGAKFDYWGQGTQVTVSS,low polyreactivity
13,QVQLVESGGGLVQAGGSLRLICAASGSIFRNNARGWYRQAAGKERELVAVISRRSGNTYYADSVKGRFTISRDNAKNTVYLQMNSLKPEDTAVYYCAADYSKSSIRGDYWGQGTQVTVSS,low polyreactivity
14,QVQLVESGGGLVQAGGSLRLSCAASGRTFVSYAMGWYRQAPGKERELVAAIRWGTGSRTYYADSVKGRFTISRDNAKNTVYLQMNSLKPEDTAVYYCAKTDWYPYGYWGQGTQVTVSS,low polyreactivity
15,QVQLVESGGRLVQAGGSLRLRCAASGYIFVYNAKGWYRQAPGKARELVAAITDGGGSTYADSVKGRFTISRDNAKNTVYLQMNSLKPEDTAVYYCAARYSDTTWYVLYYYWVQGTQVTVSS,low polyreactivity
16,QVQLVESGGGLVQAGGSLRLSCAASGRIIQRNTMGWYRQAPGKERELVAAISGSTGRTYYADSVKGRFTISRDNAKNTVYLQMNSLKPEDTAVYYCNTVGRSSSLSVFLIGYGYWGQGTQVTVSS,high polyreactivity
